Consider 13 proteins from patent US20100216853.

First the molecules themselves.
T1: H4-15 histone H4 tail peptide
T1 chain: GRGKGGKGLGKGGAK

B1: semi-synthetic p300 HAT domain E1505R (protein)
chain: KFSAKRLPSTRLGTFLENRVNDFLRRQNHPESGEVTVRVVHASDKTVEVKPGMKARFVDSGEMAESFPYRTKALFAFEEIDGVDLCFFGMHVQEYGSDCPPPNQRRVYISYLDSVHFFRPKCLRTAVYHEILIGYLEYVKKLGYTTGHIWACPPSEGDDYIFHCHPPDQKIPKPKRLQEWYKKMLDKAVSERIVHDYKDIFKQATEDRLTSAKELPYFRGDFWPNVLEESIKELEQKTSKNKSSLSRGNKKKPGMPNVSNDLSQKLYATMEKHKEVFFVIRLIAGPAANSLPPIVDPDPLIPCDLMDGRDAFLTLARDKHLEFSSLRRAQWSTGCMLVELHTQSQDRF
B2: semi-synthetic p300 HAT domain S1396R/Y1397R double mutant (protein)
chain: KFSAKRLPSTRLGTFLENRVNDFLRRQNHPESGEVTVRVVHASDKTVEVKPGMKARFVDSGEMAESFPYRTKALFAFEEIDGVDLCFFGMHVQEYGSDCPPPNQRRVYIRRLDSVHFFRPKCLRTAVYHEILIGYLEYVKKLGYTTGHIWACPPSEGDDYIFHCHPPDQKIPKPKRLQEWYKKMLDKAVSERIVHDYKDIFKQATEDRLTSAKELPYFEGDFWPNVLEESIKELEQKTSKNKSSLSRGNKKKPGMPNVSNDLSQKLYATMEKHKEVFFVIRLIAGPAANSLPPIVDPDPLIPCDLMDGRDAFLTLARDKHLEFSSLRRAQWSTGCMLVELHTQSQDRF
B3: semi-synthetic p300 HAT domain D1628R (protein)
chain: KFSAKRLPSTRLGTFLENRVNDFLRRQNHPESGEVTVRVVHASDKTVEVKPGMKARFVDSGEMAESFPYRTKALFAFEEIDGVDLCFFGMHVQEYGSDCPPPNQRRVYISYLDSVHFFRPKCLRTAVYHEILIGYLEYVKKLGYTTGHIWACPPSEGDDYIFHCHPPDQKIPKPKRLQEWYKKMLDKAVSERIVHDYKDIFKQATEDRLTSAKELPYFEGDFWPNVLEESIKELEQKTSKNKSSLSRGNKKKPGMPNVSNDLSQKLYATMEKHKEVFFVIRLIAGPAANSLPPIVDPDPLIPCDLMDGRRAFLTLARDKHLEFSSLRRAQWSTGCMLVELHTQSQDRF
B4: semi-synthetic p300 HAT domain Y1394F (protein)
chain: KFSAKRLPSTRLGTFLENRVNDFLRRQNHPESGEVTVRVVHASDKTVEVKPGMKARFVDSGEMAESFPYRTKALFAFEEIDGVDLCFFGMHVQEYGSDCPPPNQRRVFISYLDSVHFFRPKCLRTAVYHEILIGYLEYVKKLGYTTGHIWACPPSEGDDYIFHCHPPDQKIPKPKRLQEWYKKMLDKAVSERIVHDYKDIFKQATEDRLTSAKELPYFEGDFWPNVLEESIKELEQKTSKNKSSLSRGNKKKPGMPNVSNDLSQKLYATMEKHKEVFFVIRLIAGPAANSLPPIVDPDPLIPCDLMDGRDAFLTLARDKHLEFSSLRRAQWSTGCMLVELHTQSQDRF
B5: semi-synthetic p300 HAT domain E1505R/D1625R/D1628R triple mutant (protein)
chain: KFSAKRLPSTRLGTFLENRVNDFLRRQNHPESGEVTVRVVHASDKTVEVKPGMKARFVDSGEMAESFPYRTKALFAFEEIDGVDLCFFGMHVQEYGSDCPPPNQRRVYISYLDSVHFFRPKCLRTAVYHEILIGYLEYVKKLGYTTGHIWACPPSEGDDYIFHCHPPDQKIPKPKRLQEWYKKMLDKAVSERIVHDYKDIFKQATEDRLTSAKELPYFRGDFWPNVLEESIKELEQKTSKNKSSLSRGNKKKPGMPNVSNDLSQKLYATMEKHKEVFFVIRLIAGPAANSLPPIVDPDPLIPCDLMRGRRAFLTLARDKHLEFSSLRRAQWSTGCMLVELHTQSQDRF
B6: semi-synthetic p300 HAT domain T1357R (protein)
chain: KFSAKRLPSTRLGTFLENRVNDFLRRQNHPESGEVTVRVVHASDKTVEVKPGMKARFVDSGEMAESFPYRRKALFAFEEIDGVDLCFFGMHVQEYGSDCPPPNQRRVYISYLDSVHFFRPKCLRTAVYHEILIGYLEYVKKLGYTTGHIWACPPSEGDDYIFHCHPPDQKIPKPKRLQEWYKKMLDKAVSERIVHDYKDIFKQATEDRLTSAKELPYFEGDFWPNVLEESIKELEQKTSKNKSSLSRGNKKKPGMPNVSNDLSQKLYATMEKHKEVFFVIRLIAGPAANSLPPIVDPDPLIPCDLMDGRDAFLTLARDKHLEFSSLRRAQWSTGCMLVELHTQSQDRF
B7: semi-synthetic p300 HAT domain T1357L (protein)
chain: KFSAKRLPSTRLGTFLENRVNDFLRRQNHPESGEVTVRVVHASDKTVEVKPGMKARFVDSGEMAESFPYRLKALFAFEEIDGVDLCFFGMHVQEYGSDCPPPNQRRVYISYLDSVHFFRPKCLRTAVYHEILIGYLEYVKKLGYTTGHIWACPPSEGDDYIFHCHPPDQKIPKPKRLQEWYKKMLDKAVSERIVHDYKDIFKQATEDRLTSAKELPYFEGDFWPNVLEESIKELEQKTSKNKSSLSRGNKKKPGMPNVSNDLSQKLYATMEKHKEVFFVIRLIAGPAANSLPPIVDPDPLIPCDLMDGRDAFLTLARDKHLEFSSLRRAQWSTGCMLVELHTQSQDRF
B8: semi-synthetic p300 HAT domain R1410K (protein)
chain: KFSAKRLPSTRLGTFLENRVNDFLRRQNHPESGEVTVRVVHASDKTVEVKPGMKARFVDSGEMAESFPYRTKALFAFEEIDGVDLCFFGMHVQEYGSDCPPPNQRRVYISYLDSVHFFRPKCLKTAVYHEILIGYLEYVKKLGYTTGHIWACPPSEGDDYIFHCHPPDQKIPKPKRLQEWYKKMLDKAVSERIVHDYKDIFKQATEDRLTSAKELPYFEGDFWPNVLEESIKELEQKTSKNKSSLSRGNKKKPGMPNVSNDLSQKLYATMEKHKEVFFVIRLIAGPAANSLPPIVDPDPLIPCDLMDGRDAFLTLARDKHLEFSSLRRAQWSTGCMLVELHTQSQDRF
B9: semi-synthetic p300 HAT domain W1436A (protein)
chain: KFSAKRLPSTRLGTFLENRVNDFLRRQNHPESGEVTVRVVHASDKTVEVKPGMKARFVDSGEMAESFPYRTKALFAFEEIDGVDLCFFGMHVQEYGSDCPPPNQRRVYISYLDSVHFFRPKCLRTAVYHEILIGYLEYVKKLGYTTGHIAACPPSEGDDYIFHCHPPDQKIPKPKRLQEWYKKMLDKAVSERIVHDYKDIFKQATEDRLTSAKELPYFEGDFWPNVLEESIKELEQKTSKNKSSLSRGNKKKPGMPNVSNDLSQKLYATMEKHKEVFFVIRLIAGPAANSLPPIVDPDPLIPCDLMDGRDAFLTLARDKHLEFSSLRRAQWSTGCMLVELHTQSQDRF
B10: semi-synthetic p300 HAT domain D1625R (protein)
chain: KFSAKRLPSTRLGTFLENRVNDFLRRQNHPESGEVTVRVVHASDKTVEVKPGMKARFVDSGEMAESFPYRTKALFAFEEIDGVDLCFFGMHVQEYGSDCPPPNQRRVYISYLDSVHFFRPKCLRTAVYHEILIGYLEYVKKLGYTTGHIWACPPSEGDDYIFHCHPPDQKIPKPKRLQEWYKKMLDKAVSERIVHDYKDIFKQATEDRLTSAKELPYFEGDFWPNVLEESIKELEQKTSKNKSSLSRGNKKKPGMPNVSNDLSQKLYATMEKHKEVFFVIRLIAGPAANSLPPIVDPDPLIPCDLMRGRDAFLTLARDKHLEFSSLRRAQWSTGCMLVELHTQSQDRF
B11: semi-synthetic p300 HAT domain Y1467F (protein)
chain: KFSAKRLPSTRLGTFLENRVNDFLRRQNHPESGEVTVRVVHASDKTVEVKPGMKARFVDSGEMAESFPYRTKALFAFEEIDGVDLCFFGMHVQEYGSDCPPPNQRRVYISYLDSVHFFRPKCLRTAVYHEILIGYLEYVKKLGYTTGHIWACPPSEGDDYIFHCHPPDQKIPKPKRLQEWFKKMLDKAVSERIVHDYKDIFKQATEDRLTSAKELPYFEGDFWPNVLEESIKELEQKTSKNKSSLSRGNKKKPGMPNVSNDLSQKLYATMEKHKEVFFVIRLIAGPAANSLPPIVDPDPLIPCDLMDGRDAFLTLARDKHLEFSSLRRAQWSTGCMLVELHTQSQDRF
B12: semi-synthetic p300 HAT domain H1434A (protein)
chain: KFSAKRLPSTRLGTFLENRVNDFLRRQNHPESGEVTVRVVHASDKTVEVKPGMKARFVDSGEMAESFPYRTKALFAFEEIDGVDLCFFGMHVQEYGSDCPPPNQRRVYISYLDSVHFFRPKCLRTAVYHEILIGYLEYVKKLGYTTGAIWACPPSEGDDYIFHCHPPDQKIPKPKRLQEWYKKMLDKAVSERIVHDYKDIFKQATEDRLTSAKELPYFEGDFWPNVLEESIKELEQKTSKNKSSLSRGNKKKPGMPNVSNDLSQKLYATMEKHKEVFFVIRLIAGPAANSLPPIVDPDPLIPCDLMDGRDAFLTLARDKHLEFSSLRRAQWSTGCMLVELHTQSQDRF
B13: semi-synthetic p300 HAT domain R1410A (protein)
chain: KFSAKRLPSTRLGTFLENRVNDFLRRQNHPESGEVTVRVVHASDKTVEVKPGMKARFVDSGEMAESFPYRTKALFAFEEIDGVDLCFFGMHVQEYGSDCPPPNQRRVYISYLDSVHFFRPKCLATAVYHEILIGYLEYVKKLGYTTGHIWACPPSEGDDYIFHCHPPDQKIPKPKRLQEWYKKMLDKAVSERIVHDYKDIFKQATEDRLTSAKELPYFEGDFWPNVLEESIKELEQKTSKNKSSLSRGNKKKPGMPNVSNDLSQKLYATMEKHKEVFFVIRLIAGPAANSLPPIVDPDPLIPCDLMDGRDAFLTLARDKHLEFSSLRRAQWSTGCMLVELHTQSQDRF

In this data set the target is T1, H4-15 histone H4 tail peptide.
Take B1: the “Km(µM) for H4-15” value was >1000, the V/K was found to be 2000 M⁻¹ s⁻¹ and the “V/K decrease against wild-type” value is given as “V/K was decreased by 12-fold”.

For the protein B2, the “decrease of p300 HAT activity against wild-type” value was “severely decreased p300 HAT activity (>50-fold)”. Consider B3, for which the “Km(µM) for H4-15” value is on record as >1000, the V/K was found to be 2100 M⁻¹ s⁻¹ and the “V/K decrease against wild-type” value is on record as “V/K was decreased by 12-fold”. For the protein B4, the Km(µM) for H4-15 was 136 µM. For the protein B5, the “Km(µM) for H4-15” value was >1000 and the V/K worked out at 232 M⁻¹ s⁻¹.

For B6, the Km(µM) for H4-15 was determined as 294 µM and the V/K is 13200 M⁻¹ s⁻¹. Take B7: the Km(µM) for H4-15 was 111 µM and the V/K worked out at 18700 M⁻¹ s⁻¹. With B8, the Km(µM) for H4-15 stood at 156 µM. With B9, the Km(µM) for H4-15 turned out to be 394 µM. For B10, the Km(µM) for H4-15 was 640 µM, the V/K stood at 5670 M⁻¹ s⁻¹ and the “V/K decrease against wild-type” value is reported as “a V/K decrease of about 5-fold”. As for B11, the Km(µM) for H4-15 was determined as 520 µM. Still for that read-out and setting: as for B12, the figure is 151 µM.

Take B13: the Km(µM) for H4-15 is 190 µM.
